Data set [1] has as its target T1, RecA (Escherichia coli, UniProt P0A7G6 P0A7G6:2-353). Description: EMSA; beta-tubulin PCR product; RecA, incoming and LNA annealing oligos all required. The conditions noted are these: label: 5'-biotin.
Data set [2] concerns the target T1, RecA. Description: pulldown; Kan plasmid isolated from tet plasmid excess; PNA annealing oligo. The conditions noted are these: label: 3'-BioTEG.
The target in data set [3] is T1, RecA. Description: EMSA; Y-arm on OligoT/OligoU. The protocol:
(§1) We then add double-stranded nucleic acid target, which is generally ³²P-end-labeled using T4 polynucleotide kinase to facilitate detection of the complex, at a concentration of approximately 20 nM and 10 mM magnesium acetate to a final volume of 10 μl. We incubate this reaction for 10 minutes at 37° C. to allow for synapsis between to the incoming oligonucleotide and the target nucleic acid molecule. We then add the second or “annealing” oligonucleotide in 1 μl to a concentration of 640 nM (calculated for the original 10 μl reaction volume) and incubate for 10 minutes at 37° C. to allow the second oligonucleotide to anneal to the target nucleic acid. We then denature the RecA bound to the oligonucleotide:target complex by cooling the reaction to about 4° C. in an ice bath and adding 1 μl of 10% SDS. The samples are then used immediately or stored at −20° C.
Oligonucleotides used in this example. We use the OligoT/OligoU duplex as the target nucleic acid for these experiments. We use incoming DNA oligonucleotides complementary over a range of lengths to the end of the duplex target as follows: OligoV is a 20-mer with the sequence 5′-[…]-3′ (SEQ ID NO: 10); OligoW is a 25-mer with the sequence 5′-[…]-3′ (SEQ ID NO: 11); OligoX is a 30-mer (SEQ ID NO: 8); OligoY is a 35-mer with the sequence 5′-[…]-3′ (SEQ ID NO: 12); OligoZ is a 40-mer with the sequence 5′-[…]-3′ (SEQ ID NO: 13); and Oligo1 is a 46-mer with the sequence 5′-[…]-3′ (SEQ ID NO: 14). We use annealing DNA oligonucleotides complementary to the end of the duplex target (and to the incoming oligonucleotides) over a range of lengths as follows: Oligo2 is a 20-mer with the sequence 5′-[…]-3′ (SEQ ID NO: 15); Oligo4 is a 25-mer with the sequence 5′-[…]-3′ (SEQ ID NO: 16); Oligo5 is a 30-mer with the sequence 5′-[…]-3′ (SEQ ID NO: 9); Oligo6 is a 35-mer with the sequence 5′-[…]-3′ (SEQ ID NO: 17); Oligo7 is a 40-mer with the sequence 5′-[…]-3′ (SEQ ID NO: 18); and Oligo8 is a 46-mer with the sequence 5′-[…]-3′ (SEQ ID NO: 19).

For data set [4], the target named is T1, RecA. Description: EMSA; Hyg- PCR target, LNA annealing oligos. The conditions noted are these: label: 5'-Cy5. An excerpt:
We also form double D-loops using a PCR product produced from a plasmid containing the a functional hygromycin resistance gene (Hyg⁺) or a hygromycin resistance gene containing a point mutation (Hyg⁻; FIG. 15; SEQ ID NO:______]) using primers AUR123f (5′-[…]-3′; SEQ ID NO: 45) and Hyg1560r (5′-[…]-3′; SEQ ID NO: 46). We follow the protocol described in this Example for the formation of double D-loops in the Kan⁻ PCR product using HygUDF/45G as the incoming oligonucleotide (5′-Cy™ 5-[…]-3′; SEQ ID NO: 47) and various annealing oligonucleotides as indicated in Table 2. We analyze the samples prepared by separating on a 2.5% agarose gel at 4° C. as described above.

For data set [5], the target named is T1, RecA. Description: EMSA; OligoA/OligoB target, opposite strand; ATP-gamma-S, Mg2+, 37 C. On the procedure: as §1
Oligonucleotides used in this example. We use the OligoA/OligoB duplex as the target nucleic acid for these experiments. As the incoming oligonucleotide, we use either OligoC (SEQ ID NO: 3) or the complementary oligonucleotide which targets the opposite strand of the duplex target, designated “OligoD”, which has the sequence 5′-[…]-3′ (SEQ ID NO: 20).

The target in data set [6] is T1, RecA. Description: EMSA; Y-arm on OligoT/OligoU; longer oligos more efficient. On the procedure:
as §1
Oligonucleotides used in this example. We use the OligoT/OligoU duplex as the target nucleic acid for these experiments. […]

For data set [7], the target named is T1, RecA. Description: EMSA; Y-arm on OligoT/OligoU duplex with Oligo5; almost quantitative; ATP-gamma-S, Mg2+, 37 C. On the procedure: as §1
To test the formation of Y-arms under our assay conditions, we use a different target duplex DNA composed of two linear 67-mer oligonucleotides with sequence complementary to each other. The sequence of the first target strand, designated “OligoT”, is: 5′-[…]-3′ (SEQ ID NO: 6) and the sequence of the second target strand, designated “OligoU”, is: 3′-[…]-5′ (SEQ ID NO: 7). We use two oligonucleotides complementary to the end of the OligoT/OligoU linear target duplex in these Y-arm experiments. […]

Data set [8] addresses T1, RecA. Description: EMSA; matched Hyg(rep) 8 kb plasmid target with matched PNA or LNA annealing oligo. The conditions noted are these: label: 5'-Cy5. On the procedure: The target in these experiments is one of two nonsupercoiled plasmids of about 8 kb, differing in a single nucleotide. The incoming oligonucleotides are 31-mer deoxyribonucleotides labeled at the 5′ terminus with either Cy5 or Cy3; the annealing oligonucleotides are 15-mer PNA oligonucleotides acetylated at the N terminus. Deproteinization is performed by adding SDS at either 37° C. or 45° C. to aliquots of the reaction mixture and incubating at the indicated temperature for various amounts of time, after which time the aliquots are removed and placed on dry ice.
Two gels are run separately, but scanned at the same time to allow a direct comparison. Results are shown in FIGS. 18A and 18B for the 37° C. deproteinization data only.

Data set [9] concerns the target T1, RecA. Description: EMSA; OligoA/OligoB 70-mer duplex target; double D-loop with OligoI or LNA OligoN; ATP-gamma-S, Mg acetate, 37 C. The protocol:
as §1
Oligonucleotides used in this example. We employ the protocol described in Example 1 to form double D-loops between two DNA oligonucleotides and linear, duplex target DNA. The target duplex DNA is composed of two linear 70-mer oligonucleotides with sequence complementary to each other. The sequence of the first target strand, designated “OligoA”, is: 5′-[…]-3′ (SEQ ID NO: 1) and the sequence of the second target strand, designated “OligoB”, is: 3′-[…]-5′ (SEQ ID NO: 2). […]

The values that follow come from US20030180746, “Polymorphism detection and separation” (published 2003).

T1 sequence (P0A7G6 2-353, one chain of several): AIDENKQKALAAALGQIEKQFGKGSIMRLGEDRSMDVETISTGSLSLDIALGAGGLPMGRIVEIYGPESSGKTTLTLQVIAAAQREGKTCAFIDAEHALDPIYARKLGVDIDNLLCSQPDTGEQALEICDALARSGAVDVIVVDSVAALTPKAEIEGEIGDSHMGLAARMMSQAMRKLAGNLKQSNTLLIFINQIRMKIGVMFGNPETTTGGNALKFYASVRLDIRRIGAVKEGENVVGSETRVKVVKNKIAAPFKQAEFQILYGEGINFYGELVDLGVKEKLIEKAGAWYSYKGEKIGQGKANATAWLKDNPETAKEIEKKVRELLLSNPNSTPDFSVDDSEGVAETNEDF

B1: betaTUBwt/31D/5'Bio (ssDNA)
DNA: GGCCTGAAGATGTCGGCCACCTTCATCGGCA
Take B1: the binding result with RecA [1] was “binds”.

B2: KAN/LDB/31t (ssDNA)
DNA: GAGGCTATTCGGCTATGACTGGGCACAACAG
In the case of B2, in the data set with RecA [2], the binding result is listed as “binds”.

B3: OligoY incoming 35-mer (ssDNA)
DNA: GCAGACTTCTCCTCAGGAGTCAGGTGCACCATGGT
In the case of B3, the binding result with RecA [3] is on record as “binds”.

B4: HygUDF/45G incoming (ssDNA)
DNA: CGCAGCTATTTACCCGCAGGACCTATCCACGCCCTCCTACATCGA
For the molecule B4, the binding result with RecA [4] is reported as “binds”.

B5: Oligo1 incoming 46-mer (ssDNA)
DNA: GCAGACTTCTCCTCAGGAGTCAGGTGCACCATGGTGTCTGTTTGAG
On to B5, for which the binding result in the data set with RecA [3] was “binds”.

B6: OligoD incoming 30-mer (ssDNA)
DNA: CTGTTGTGCCCAGTCCTAGCCGAATAGCCT
Regarding B6, the binding result with RecA [5] is reported as “binds”.

B7: OligoW incoming 25-mer (ssDNA)
DNA: GCAGACTTCTCCTCAGGAGTCAGGT
As to B7, the binding result in the data set with RecA [3] is listed as “binds”.

B8: OligoZ incoming 40-mer (ssDNA)
DNA: GCAGACTTCTCCTCAGGAGTCAGGTGCACCATGGTGTCTG
Regarding B8, in the data set with RecA [3], the binding result is “binds”.

B9: OligoV incoming 20-mer (ssDNA)
DNA: GCAGACTTCTCCTCAGGAGT
Regarding B9, in the data set with RecA [6], the binding result is given as “binds”.

B10: OligoX incoming 30-mer (ssDNA)
DNA: GCAGACTTCTCCTCAGGAGTCAGGTGCACC
On to B10, for which, in the data set with RecA [7], the binding result is listed as “binds”.

B11: HYG(NT)D5Cy5/31C(rep) (ssDNA)
DNA: ATTTACCCGCAGGACCTATCCACGCCCTCCT
Regarding B11, the binding result with RecA [8] was “binds”.

B12: OligoC incoming 30-mer (ssDNA)
DNA: AGGCTATTCGGCTACGACTGGGCACAACAG
For the molecule B12, the binding result in the data set with RecA [9] is “binds”.
